# Test results from patent US8188225B2, “Inorganic phosphate assays” (Medical Research Council, priority 2005, dated 2012).
# Where two headings read alike, the source gives them in different places.
# Columns and labels:
# [1] = Stopped-flow association kinetics of Pi with rhodamine-PBP; format: binding
# Source text: A stopped-flow apparatus was used to determine association and dissociation kinetics of Pi from rhodamine-PBP.
# A representative set of fluorescence traces is shown in FIG. 4A, all normalized to 100% for the initial intensity, but offset by 15% from each other. As the concentration of Pi and the rate increase, a significant proportion of the fluorescence trace is lost in the dead time of the stopped-flow instrument, causing an apparent decrease in intensity.
# It is apparent that the rate reaches a limiting high value. This can be interpreted in terms of a two-step mechanism, binding itself (step 1), then a conformation change (step 2):
# The fluorescence change occurs in step 2 and is likely to be concomitant with the closure of the binding cleft. It is this process that limits the overall rate at high Pi concentration. The data in FIG. 4B fitted to a hyperbola give 1/K1=2.2 μM and k+2+k−2=267 s^−1 (at 10° C.).
# [2] = Fluorescence change of labelled PBP on Pi binding; settings: for fluorescence increase with Pi: Pi-bound vs Pi-free, typical product, 10 mM PIPES pH 7.0
# Source text: Fluorescence spectra were obtained under the same conditions. Excitation was at 555 nm. The fluorescence signals were normalised to 100%, representing the maximum intensity in the presence of Pi.
# [3] = Stopped-flow dissociation kinetics of Pi from rhodamine-PBP; settings: 10° C.
# Protocol: Absorbance spectra were obtained using a Beckman DU640 spectrophotometer. Fluorescence measurements were obtained on a Perkin Elmer LS50B or Cary Eclipse fluorimeter with xenon lamp. Stopped flow experiments were carried out on a HiTech SF61MX apparatus, with a mercury-xenon lamp and HiTech IS-2 software, a monochromator and 4 mm slits on the excitation light (550 nm for rhodamine) and a 570 nm cut-off filter on the emission. The stated concentrations are those in the mixing chamber, unless stated otherwise.
# 0.25 unit mL^−1 PNPase and 100 μM 7-methylguanosine were present with the wild-type PBP to ensure that it was free of Pi prior to mixing.
# [4] = Fluorescence titration of labelled PBP with Pi (binding capacity); settings: 20° C.
# Protocol: This fluorescence represents the value when approximately Pi-free. The lines shown in FIG. 3 are a best fit to data from 0 to 4 μM added Pi, and a horizontal line.
# [5] = similar titration, reference 25; cited from earlier work
molecule,measurement,setting,value
"rhodamine-PBP: E. coli PBP Ala17Cys/Ala197Cys (17/197) mutant doubly labelled with 6-IATR (conjugate, UniProt P0AG82 26-346, looked up, variant A17C A197C, doubly labelled with 6-IATR rhodamine, E. coli PBP Ala17Cys/Ala197Cys (17/197) mutant doubly labelled with 6-IATR) Phosphate-binding protein PstS: EASLTGAGATFPAPVYCKWADTYQKETGNKVNYQGIGSSGGVKQIIANTVDFGASDAPLSDEKLAQEGLFQFPTVIGGVVLAVNIPGLKSGELVLDGKTLGDIYLGKIKKWDDEAIAKLNPGLKLPSQNIAVVRRADGSGTSFVFTSYLAKVNEEWKNNVGTGSTVKWPIGLGGKGNDGIAAFVQRLPGAIGYVEYCYAKQNNLAYTKLISADGKPVSPTEENFANAAKGADWSKTFAQDLTNQKGEDAWPITSTTFILIHKDQKKPEQGTEVLKFFDWAYKTGAKQANDLDYASLPDSVVEQVRAAWKTNIKDSSGKPLY",k+2+k−2 (conformation change step 2),"[1]; hyperbola fit, 10° C., 10 mM PIPES pH 7.0",267 s⁻¹
same,Kd,"[1]; hyperbola fit, 10° C., 10 mM PIPES pH 7.0, read-out: 1/K1 (binding step 1)",2200 nM
same,association kinetics compared with MDCC-PBP,[1]; rhodamine-PBP at 10° C. vs MDCC-PBP at 5° C.,slower than that found with MDCC-PBP at 5 °C
same,fluorescence increase with Pi,[2],18 fold
same,"fluorescence increase with Pi, maximum / best batch","[2]; emission at 578 nm (λmax), depends on purity of doubly labelled species, listed as A17C-A197C",up to 30 fold
same,Pi dissociation rate,"[3]; best fit exponential, excess 10 μM wild-type PBP",6.6 s⁻¹
same,Kd,"[3]; read-out: overall dissociation constant k−2/k+2K1, from association and dissociation kinetics",60 nM
same,binding capacity for Pi,[4],~100%
"RRC2M: here the product of A17C-A197C mutant PBP labelled with the maleimide Rhodamine Red C2 (conjugate, UniProt P0AG82 26-346, looked up, variant A17C A197C, Rhodamine Red C2 maleimide labels) Phosphate-binding protein PstS: EASLTGAGATFPAPVYCKWADTYQKETGNKVNYQGIGSSGGVKQIIANTVDFGASDAPLSDEKLAQEGLFQFPTVIGGVVLAVNIPGLKSGELVLDGKTLGDIYLGKIKKWDDEAIAKLNPGLKLPSQNIAVVRRADGSGTSFVFTSYLAKVNEEWKNNVGTGSTVKWPIGLGGKGNDGIAAFVQRLPGAIGYVEYCYAKQNNLAYTKLISADGKPVSPTEENFANAAKGADWSKTFAQDLTNQKGEDAWPITSTTFILIHKDQKKPEQGTEVLKFFDWAYKTGAKQANDLDYASLPDSVVEQVRAAWKTNIKDSSGKPLY",fluorescence increase with Pi,[2],little fluorescence change
"MDCC-PBP: prior-art MDCC-labelled PBP, label linked via a chiral centre on a succinimide (conjugate, UniProt P0AG82 26-346, looked up, MDCC fluorophore label, prior-art MDCC-labelled PBP, label linked via a chiral centre on a succinimide) Phosphate-binding protein PstS: EASLTGAGATFPAPVYAKWADTYQKETGNKVNYQGIGSSGGVKQIIANTVDFGASDAPLSDEKLAQEGLFQFPTVIGGVVLAVNIPGLKSGELVLDGKTLGDIYLGKIKKWDDEAIAKLNPGLKLPSQNIAVVRRADGSGTSFVFTSYLAKVNEEWKNNVGTGSTVKWPIGLGGKGNDGIAAFVQRLPGAIGYVEYAYAKQNNLAYTKLISADGKPVSPTEENFANAAKGADWSKTFAQDLTNQKGEDAWPITSTTFILIHKDQKKPEQGTEVLKFFDWAYKTGAKQANDLDYASLPDSVVEQVRAAWKTNIKDSSGKPLY",binding capacity for Pi,[5],75%
"K229C-E302C: E. coli PBP Lys-229/Glu-302 to Cys double mutant, doubly labelled with 6-IATR (conjugate, UniProt P0AG82 26-346, looked up, variant K229C E302C, 6-IATR labels, E. coli PBP Lys-229/Glu-302 to Cys double mutant, doubly labelled with 6-IATR) Phosphate-binding protein PstS: EASLTGAGATFPAPVYAKWADTYQKETGNKVNYQGIGSSGGVKQIIANTVDFGASDAPLSDEKLAQEGLFQFPTVIGGVVLAVNIPGLKSGELVLDGKTLGDIYLGKIKKWDDEAIAKLNPGLKLPSQNIAVVRRADGSGTSFVFTSYLAKVNEEWKNNVGTGSTVKWPIGLGGKGNDGIAAFVQRLPGAIGYVEYAYAKQNNLAYTKLISADGKPVSPTEENFANAACGADWSKTFAQDLTNQKGEDAWPITSTTFILIHKDQKKPEQGTEVLKFFDWAYKTGAKQANDLDYASLPDSVVCQVRAAWKTNIKDSSGKPLY",binding capacity for Pi,[4],~100%
